Data reported in publication PMC9084231.
pKd: −log10 of the molar value.

Experiments:
[1] = target: PRP6-HO7 (Proline-rich Protein domain CCP6 heptamerized) (human) (UniProt P04003); assay: SDS-PAGE under reducing and non-reducing conditions; 4-12% gradient SDS-PAGE of the purified proteins, Coomassie (Blue Safe) staining and Western blot with anti-6xHis and anti-C4BP α-chain antibodies; reduced against non-reduced size
Protein S (Homo sapiens) = Protein S (Homo sapiens) (UniProt P07225); settings: cited from earlier work
UniProt P07225, sequence (P07225 42-676): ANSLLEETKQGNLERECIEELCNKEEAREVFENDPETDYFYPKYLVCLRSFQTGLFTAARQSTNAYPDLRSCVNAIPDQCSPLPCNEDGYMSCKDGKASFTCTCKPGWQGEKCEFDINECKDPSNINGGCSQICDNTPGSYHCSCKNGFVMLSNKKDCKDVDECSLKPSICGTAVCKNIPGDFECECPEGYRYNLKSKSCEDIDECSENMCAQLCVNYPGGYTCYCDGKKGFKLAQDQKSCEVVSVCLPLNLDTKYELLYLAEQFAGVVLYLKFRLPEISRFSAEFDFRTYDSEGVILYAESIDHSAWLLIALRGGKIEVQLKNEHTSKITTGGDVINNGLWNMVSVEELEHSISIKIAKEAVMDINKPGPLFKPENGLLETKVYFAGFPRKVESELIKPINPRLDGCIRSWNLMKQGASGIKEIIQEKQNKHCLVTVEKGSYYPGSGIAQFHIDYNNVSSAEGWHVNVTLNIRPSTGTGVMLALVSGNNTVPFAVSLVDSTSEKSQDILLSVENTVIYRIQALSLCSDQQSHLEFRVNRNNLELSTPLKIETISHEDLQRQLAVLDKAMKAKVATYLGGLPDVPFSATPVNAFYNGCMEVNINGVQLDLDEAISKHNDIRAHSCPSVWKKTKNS

stoichiometry N [1] | Substance | pKd (Protein S (Homo sapiens))
7 | PRP6-HO7 (Proline-rich Protein domain CCP6 heptamerized) (from UniProt P04003 540-597) | –
– | C4BP beta-chain CCP1 (from UniProt P20851) | 10.00
